Test results: article PMC9719028 (Life Science Alliance, 2022)

Assays:
DIRC2-AA = biological target: T1, DIRC2-AA (Homo sapiens, UniProt Q96SL1, L14A/L15A); assay: inhibition of specific [3H]pyridoxine uptake in transfected COS-7 cells; assay type: cell-based; details: 10 nM [3H]pyridoxine, 1 mM test compound, pH 5.0, 37 °C, 1 min
T1 construct: gene SLC49A4; untagged DIRC2-AA in pCI-neo, N-terminal dileucine motif (E10RQPL14L15) replaced by dialanine, redirected to plasma membrane of transiently transfected COS-7 cells; FLAG-tagged form mostly present as cleaved product
T1 sequence (Q96SL1 1-478 L14A/L15A): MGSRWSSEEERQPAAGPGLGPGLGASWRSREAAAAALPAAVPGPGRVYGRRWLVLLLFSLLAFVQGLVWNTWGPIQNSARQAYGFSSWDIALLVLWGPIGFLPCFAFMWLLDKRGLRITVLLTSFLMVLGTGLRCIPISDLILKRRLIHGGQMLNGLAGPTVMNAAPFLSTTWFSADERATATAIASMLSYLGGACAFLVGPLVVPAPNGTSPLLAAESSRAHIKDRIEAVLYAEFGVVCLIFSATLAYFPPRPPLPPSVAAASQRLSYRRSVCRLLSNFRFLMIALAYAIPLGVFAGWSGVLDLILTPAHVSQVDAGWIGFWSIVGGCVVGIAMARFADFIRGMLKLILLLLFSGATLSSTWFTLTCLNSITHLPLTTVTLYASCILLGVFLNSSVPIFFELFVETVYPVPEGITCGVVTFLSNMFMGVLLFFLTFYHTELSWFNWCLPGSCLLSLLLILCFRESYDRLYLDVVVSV

[1] = substrate: Cc1ncc(CO)c(CO)c1O; assay: cells, lysate or membranes; details: pH 5.0, 37 °C, 1 min, labelled compound

## Cc1ncc(CO)c(C)c1O [4-deoxypyridoxine]
DIRC2-AA
  % inhibition at 1 mM: only 4-deoxypyridoxine other than pyridoxine significantly inhibited the DIRC2-AA–specific uptake

B1: EGFP-THTR2 (Homo sapiens) (protein)
chain: MDCYRTSLSSSWIYPTVILCLFGFFSMMRPSEPFLIPYLSGPDKNLTSAEITNEIFPVWTYSYLVLLLPVFVLTDYVRYKPVIILQGISFIITWLLLLFGQGVKTMQVVEFFYGMVTAAEVAYYAYIYSVVSPEHYQRVSGYCRSVTLAAYTAGSVLAQLLVSLANMSYFYLNVISLASVSVAFLFSLFLPMPKKSMFFHAKPSREIKKSSSVNPVLEETHEGEAPGCEEQKPTSEILSTSGKLNKGQLNSLKPSNVTVDVFVQWFQDLKECYSSKRLFYWSLWWAFATAGFNQVLNYVQILWDYKAPSQDSSIYNGAVEAIATFGGAVAAFAVGYVKVNWDLLGELALVVFSVVNAGSLFLMHYTANIWACYAGYLIFKSSYMLLITIAVFQIAVNLNVERYALVFGINTFIALVIQTIMTVIVVDQRGLNLPVSIQFLVYGSYFAVIAGIFLMRSMYITYSTKSQKDVQSPAPSENPDVSHPEEESNIIMSTKL
[1]; Hanks' solution with MES
  Km: 20 ± 1 µM

B2: DIRC2-AA (Homo sapiens; L14A/L15A) (protein)
chain: T1 sequence (Q96SL1 1-478 L14A/L15A)
[1]; Hanks' solution with MES (NaCl present), H+-coupled uptake
  Km: 522 ± 63 µM

B3: EGFP-DIRC2-AA (Homo sapiens; L14A/L15A) (protein)
chain: T1 sequence (Q96SL1 1-478 L14A/L15A)
[1]; Hanks' solution with MES (NaCl present), H+-coupled uptake, caption names it FLAG-DIRC2-AA once, text says EGFP-DIRC2-AA
  Km: 476 ± 19 µM
